Test results as given in article PMC8371082, “En route to dynamic life processes by SNARE-mediated fusion of polymer and hybrid membranes” (Nature Communications, 2021).

Biological target: T1, Syntaxin-1A (183-288) (Rattus norvegicus, UniProt P32851 183-288)
T1 construct: Syntaxin-1A, Rattus norvegicus, residues 183-288
Assay: complex assembly from purified proteins, isolated by ion-exchange chromatography; truncated syb-2, syntaxin-1A and SNAP-25a mixed at 1.5:1:1 molar ratio, incubated at 4 °C overnight, complex purified by ion-exchange chromatography in the presence of CHAPS
Details: both partners purified

T1 sequence (P32851 183-288): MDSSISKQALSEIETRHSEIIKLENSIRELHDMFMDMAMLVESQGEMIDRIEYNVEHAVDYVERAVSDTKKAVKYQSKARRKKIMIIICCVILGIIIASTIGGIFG

B1: Truncated synaptobrevin-2 (49-96) (domain or fragment, Rattus norvegicus, UniProt P63045 49-96, looked up)
chain: NVDKVLERDQKLSELDDRADALQAGASQFETSAAKLKRKYWWKNLKMM
notes: Synaptobrevin-2 (VAMP2), Rattus norvegicus, residues 49-96; also called truncated syb-2; C-terminal syb fragment
**Q.** Does B1 bind?
**A.** Result: binds
